Measured values from patent US20090042251.

Key:
[1] = target: reduced and carboxymethylated (S54G, P55N)-RNase T1 (UniProt P00651)
[2] = target: T1, reduced and carboxymethylated (S54G, P55N)-RNase T1, P00651
T1 chain: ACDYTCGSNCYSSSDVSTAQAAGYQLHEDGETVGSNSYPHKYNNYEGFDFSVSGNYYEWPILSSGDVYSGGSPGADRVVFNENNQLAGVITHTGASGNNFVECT

Question: Which Specificity constant kcat/KM (RCM-T1 refolding assay) [1] does the source give for hFKBP12 here?
Answer: 14000 M⁻¹ s⁻¹

B1: hFKBP12-IF5 (protein)
chain: GVQVETISPGDGRTFPKRGQTCVVHYTGMLEDGKKFDSSRDRNKPFKFMLGKQEVIRGWEEGVAQMSVGQRAKLTISPDYAYGMPNPELVISVPREEFTKAGLEPQEGLYVMTDSGIAKIVSVGESEVSLDFNHPLAGKTLVFDVELLKLEHHHHHH
Question: Which Specificity constant kcat/KM (RCM-T1 refolding assay) [2] does the source give for B1 here?
Answer: 660000 M⁻¹ s⁻¹

B2: TcFKBP18 (protein)
chain: MKVEAGDYVLFHYVGRFEDGEVFDTSYEEIARENGILVEEREYGPMWVRIGVGEIIPGLDEAIIGMEAGEKKTVTVPPEKAYGMPNPELVISVPREEFTKAGLEPQEGLYVMTDSGIAKIVSVGESEVSLDFNHPLAGKTLVFEVEVIEVKKAEEDSEA
Question: B2 was tested. Which Specificity constant kcat/KM (RCM-T1 refolding assay) [2] did it give?
Answer: 600000 M⁻¹ s⁻¹

B3: SlyD* (SlyD 1-165) (protein)
chain: MKVAKDLVVSLAYQVRTEDGVLVDESPVSAPLDYLHGHGSLISGLETALEGHEVGDKFDVAVGANDAYGQYDENLVQRVPKDVFMGVDELQVGMRFLAETDQGPVPVEITAVEDDHVVVDGNHMLAGQNLKFNVEVVAIREATEEELAHGHVHGAHDHHHDHDHDHHHHHH
Question: How did the Specificity constant kcat/KM (RCM-T1 refolding assay) [2] turn out when B3 was run?
Answer: 680000 M⁻¹ s⁻¹

Question: And the “concentration at which refolding of RCM-T1 is twofold accelerated” value [2]?
Answer: In the presence of as low as 2 nM SlyD* refolding of RCM-T1 is already twofold accelerated

B4: hFKBP12-IF1 (C22A) (protein)
chain: GVQVETISPGDGRTFPKRGQTAVVHYTGMLEDGKKFDSSRDRNKPFKFMLGKQEVIRGWEEGVAQMSVGQRAKLTISPDYAYGQYDENLVQRVPKDVFMGVDELQVGMRFLAETDQGPVPVEITAVEDDHVVVDGNHMLAGQNLVFDVELLKLEHHHHHH
Question: Which results are given for B4?
Answer: Specificity constant kcat/KM (RCM-T1 refolding assay) [2]: 2.5e+06 M⁻¹ s⁻¹; concentration sufficient to double the folding rate of RCM-T1 [2]: Less than 1 nM FKBP12-IF1 are sufficient to double the folding rate of RCM-T1; specificity constant [2]: higher than 2.5×10^6 M^-1s^-1

B5: hFKBP12-IF4 (protein)
chain: GVQVETISPGDGRTFPKRGQTAVVHYTGMLEDGKKFDSSRDRNKPFKFMLGKQEVIRGWEEGVAQMSVGQRAKLTISPDYAYGVPSPDLIQYFSRREFMDAGEPEIGAIMLFTAMDGSEMPGVIREINGDSITVDFNHPLAGQTLVFDVELLKLEHHHHHH
Question: Which Specificity constant kcat/KM (RCM-T1 refolding assay) [2] does the source give for B5 here?
Answer: 850000 M⁻¹ s⁻¹

Question: What about the “specificity constant (kcat/KM)” value [2] of the same molecule?
Answer: 800.000 M⁻¹ s⁻¹

B6: SlyD* ΔIF loop (protein)
chain: MKVAKDLVVSLAYQVRTEDGVLVDESPVSAPLDYLHGHGSLISGLETALEGHEVGDKFDVAVGANDAYGATGHPGIIPPHATLKFNVEVVAIREATEEELAHGHVHGAHDHHHDHDHDHHHHHH
Question: How did the Specificity constant kcat/KM (RCM-T1 refolding assay) [2] turn out when B6 was run?
Answer: 500 M⁻¹ s⁻¹

Question: And the “specificity constant relative to SlyD*” value [2]?
Answer: amounts to only 0.07% of SlyD*

B7: SlpA (protein)
chain: SESVQSNSAVLVHFTLKLDDGTTAESTRNNGKPALFRLGDASLSEGLEQHLLGLKVGDKTTFSLEPDAAFGVPSPDLIQYFSRREFMDAGEPEIGAIMLFTAMDGSEMPGVIREINGDSITVDFNHPLAGQTVHFDIEVLEIDPALEAHHHHHH
Question: With B7 as the molecule, how does the Specificity constant kcat/KM (RCM-T1 refolding assay) [2] read?
Answer: < 1000 M⁻¹ s⁻¹
